According to patent publication WO2014051109A1 (dated 2014):

T1: human mature dimer BMP10 recombinant protein (R&D Systems, Cat#2926-BP) (human, UniProt O95393 317-424)
T1 construct: Bought protein; also called human BMP10
T1 sequence: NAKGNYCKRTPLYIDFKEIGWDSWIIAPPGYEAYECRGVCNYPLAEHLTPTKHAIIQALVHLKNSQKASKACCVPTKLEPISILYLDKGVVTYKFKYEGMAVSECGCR

T2: human BMP9 recombinant protein (prepared by the method of Example 12 of WO2010/126169); N-terminal His-type … (human, UniProt Q9UK05 23-319; Q9UK05 320-429)
T2 construct: not shown: N-terminal His tag (His6)
T2 sequence 1: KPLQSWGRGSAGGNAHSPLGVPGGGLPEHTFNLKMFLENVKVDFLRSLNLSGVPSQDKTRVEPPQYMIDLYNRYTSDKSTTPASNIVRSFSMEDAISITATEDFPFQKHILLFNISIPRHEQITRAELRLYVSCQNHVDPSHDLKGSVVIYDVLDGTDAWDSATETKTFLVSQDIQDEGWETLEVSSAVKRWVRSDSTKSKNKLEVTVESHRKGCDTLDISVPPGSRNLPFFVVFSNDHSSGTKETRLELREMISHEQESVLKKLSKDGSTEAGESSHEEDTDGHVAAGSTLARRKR
T2 sequence 2: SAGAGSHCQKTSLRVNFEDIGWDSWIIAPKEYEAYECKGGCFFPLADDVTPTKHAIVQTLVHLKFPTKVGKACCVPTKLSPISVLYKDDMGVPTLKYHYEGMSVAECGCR

T3: human BMP9/10 chimeric protein C (human, UniProt Q9UK05 23-319; Q9UK05 320-429)
T3 construct: also called BMP9/10 chimeric recombinant protein C; pLN1V5_hBMP9/10C product; not shown: His6 tag
T3 chain 1: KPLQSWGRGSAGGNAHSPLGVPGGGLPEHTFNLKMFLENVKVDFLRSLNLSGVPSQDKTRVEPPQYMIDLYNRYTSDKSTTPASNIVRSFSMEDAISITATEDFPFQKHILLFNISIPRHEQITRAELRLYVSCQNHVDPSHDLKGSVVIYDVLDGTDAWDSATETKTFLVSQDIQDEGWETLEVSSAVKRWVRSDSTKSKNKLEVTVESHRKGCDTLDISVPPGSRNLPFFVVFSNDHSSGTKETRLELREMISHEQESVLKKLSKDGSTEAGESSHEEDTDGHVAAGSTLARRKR
T3 chain 2: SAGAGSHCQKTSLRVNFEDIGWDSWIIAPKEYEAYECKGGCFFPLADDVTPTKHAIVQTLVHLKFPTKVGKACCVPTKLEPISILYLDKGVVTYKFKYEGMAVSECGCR

T4: human mature dimer BMP9 recombinant protein (R&D Systems, Cat#3209-BP) (human, UniProt Q9UK05 320-429)
T4 sequence: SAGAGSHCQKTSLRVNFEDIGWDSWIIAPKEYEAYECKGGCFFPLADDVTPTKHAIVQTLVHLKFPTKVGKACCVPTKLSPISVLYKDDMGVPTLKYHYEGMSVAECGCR


Experiments:
[1] = target: human BMP9 recombinant protein (prepared by the method of Example 12 of WO2010/126169; N-terminal His-type hBMP9 complex, vector pLN1V5_hBMP9) (human) (UniProt Q9UK05); test: SPR (BIAcore 2000), antibody captured by anti-mouse IgG on CM5, human BMP9 as analyte, single cycle kinetics
[2] = target: T1, human mature dimer BMP10 recombinant …; test: solid-phase antigen ELISA, biotin-labeled antibody on immobilized BMP10
[3] = target: T2, human BMP9 recombinant protein …; test: SPR (BIAcore 2000), ratio of Kd values against the R&D antibody
[4] = target: T3, human BMP9/10 chimeric protein C; test: solid-phase antigen ELISA, recombinant 3C7-3-1 antibody 1000 ng/mL on immobilized antigen (3 ug/mL)
[5] = target: T2, human BMP9 recombinant protein …; test: SPR (BIAcore 2000), antibody captured by anti-mouse IgG on CM5, human BMP9 as analyte, single cycle kinetics
[6] = target: T4, human mature dimer BMP9 recombinant …; test: cell-based or functional assay
[7] = target: T4, human mature dimer BMP9 recombinant …; test: solid-phase antigen ELISA, biotin-labeled antibody 100 ng/mL on immobilized BMP9

Kd [1] [nM] | binding result [2] | binding activity, fold of the R&D antibody [3] [fold] | binding result [4] | Kd [5] [nM] | BMP9-dependent ALK1-derived signal inhibitory activity (luciferase, human ALK1 reporter cells ALK1/p(GCCG)12-Luc/HepG2(38.5), 10 ng/mL BMP9) [6] | binding result [7] | Molecule
0.616 |  |  |  |  |  |  | R&D antibody (anti-human BMP9 mouse monoclonal antibody, R&D Systems, clone No. 360107)
 | no binding (tested: 100 ng/mL antibody) | 23.3 | binds | 0.0264 | ~0.0625 fold of the R&D antibody |  | 3C7-3-1 antibody (antibody, V domains shown, Mouse IgG1, kappa; also called recombinant 3C7-3-1 antibody (mouse IgG1, kappa)) VH: EVQLQQSGPELVKPGASVKISCKASGNSFTGYYMNWMKQSPEKSLEWIGEINPSTGATTYNQKFKAKATLTVDKSSSTAYMQLKSLTSEDFAVYYCTRRAAYYFDYWGQGTTLTVSS VL: QIVLTQSPALMSASPGEKVTMTCSASSSVNYMYWYQQKPRSSPKPWIYLTSNLASGVPARFSGSGSGTSYSLTISSMEAEDAATYYCQQWSSNPRTFGGGTKLEIK
 | no binding (tested: 100 ng/mL antibody) |  |  |  |  | binds | 3B7-3-3 antibody (antibody, V domains shown, Mouse monoclonal antibody from a hybridoma (BMP9 KO mouse); also called anti-human BMP9 monoclonal antibody 3B7-3-3) VH: EVQLQQSRPELVKPGASVKISCKASDYSFTDYYMNWVKQSPDKSLEWIGEISPSSGGTTYNQKFKAKATLTVDKSSSTAYMQLKSLTSEDSAVYYCATRGAFYFDYWGQGTALTVSS VL: QIVLTQSPALMSAFPGEKVTMTCSASSSVSYMYWYQQKPRSSPKPWIYLTSNLASGVPTRFSGSGSGTSYSLTISSMEAEDAATYFCQQWSSNPRTFGGGTKLEIK
